# Experiment: soluble on expression in E. coli; label from the status in PepcDB or PDB records
row,Sequence,soluble on expression in E. coli
1,MGSDKIHHHHHHMQTGKAISIPSILKVGNGTLNKIGEYLKSEELTSVVIFMGNGLIDMFGDTIMKSLTDAGITVLEYSELDTVEIDDIITLAFDIPNKVKAVVSVGGGKVIDAGKYAAFLRNMPFISVPTSSSSDGFSSASASLLVHGKRTSVPAKLAHGIIVDTQVIRTAPEKFIYSGIGDMVSKITALYDWIFEEAHGAGVVNDFAVMVAKKAVNSFVRTPYESIKDELFLKELVDSLAMSGIANEIAGSSAPTSGSEHLISHALDKILEHPQLHGIQVGIATYIMSVVQNHRYVRVCTVLKRTGFFDYAATLGMRKQDFLDAIDMAPSMKPFRHTYLHEKEYRDAAKKLVLEDDILNKILV,not soluble
2,GMTKAREFLGTGWKFPVAAGADGAMVLSSAEEDIAESIRIILGTARGERVMRPDFGCGIHDRVFSVINTTTLGLIENEVKEALILWEPRIELLSVTASPREAAEGRLLIDIEYRVRSTNTRFNLVYPFYLKESA,soluble
3,ASNFEEFVLVDNGGTGDVKVAPSNFANGVAEWISSNSRSQAYKVTCSVRQSSANNRKYTVKVEVPKVATQVQGGVELPVAAWRSYMNMELTIPVFATNDDCALIVKALQGTFKTGNPIATAIAANSGIY,soluble
4,MSEAVKLDVGGTIFKTSKSTLTKFDGFFRTMLGSGIGLNVDESGCIFIDRSPKHFDLILNFMRDGCLALPKNERDLTELMAEAQYYLLDGLIDRLASSNWSVESDEKTINVAKRLPILENNSQFLQVLCNQEKPILLIVVMASRDHFFPNMSIPDGFNAYKFVEKYSHQFHIYFMSTFVAQFLTIRVKRNNKIVYLKRAAYVSSGQQE,not soluble
5,SAEEPEPDLGVAEGSEDQALEMPSWKAPEDIDPQPGSYEIRHYGPAKWVSTCVESLDWDSAIQTGFTKLNGYIQGKNEKEMKIKLTAPVTSYVEPGSSPFSLLMDSPVAKRIKNNF,soluble
6,IKDFDYNIGFNMSTTKNKVVELSDADQVLQGEGLKYGTEHFPTETRVGKPIGAFYLYRTDGIFQSMDEVNAHVNKDGQLLQPNAQPGDIRFKDLDGNGSIDAGDKEYCGSGIPTLEANLNLSFGYKGFDLSIVLGSAWNFKLYNGNKYFYEGMNSKSNMLKSTLNAWTPDNRNTDVPRAVYQDPNGNMKESDRFLENGDFVRLRQAQLGYTLPKSLMQKFYIEKLRFYVSGENLFTITGYDGIDPEFSRASVLNTGVDKLIYPFTRSFTVGAQLTF,not soluble
7,GSAGKFIVIFKNDVSEDKIRETKDEVIAEGGTITNEYNMPGMKGFAGELTPQSLTKFQGLQGDLIDSIEEDGIVTTQ,soluble
8,MTNGQSPAGGVQSVERAFDILEIMASAGGSIGVSELADLAGLPLPTIHRLIRTLMNRGYVRQLPTRRYALGPKLIRLGESATQLIGAWSRPHLSELVRGTGETANMAVLDGTMAVYVAQVPSEHAMRMFTEVGRRVYPHCTGVGKAILMQLSNDAVRSLVGRTGMTTYTENSLTDPDMLIADLELSRNRGFAIDEGEQEIGVRCFSVPVPNAPTPTAISVSGPAARVTLESADHIVPLLKRVAKELGTEFDKNAAL,not soluble
9,MSLSSRYTPSEMAQALGAGLLSFPVTHFDADMAFDEPAYRSNLDWLSSHPAAGLFAAGGTGELFSLTLDEVDRAVRAAVTQTAGRMPVIAPAGYGTAIAVAMAQAAERNDADGILLFPPYLTECDADGVAEHVERVCKATSLGVIVYGRANARLDDVALARVAERCPNLVGYKDGIGDVERMTRIYARLGDRLLYVGGLPTAETFALPYLEMGVTTYSSAIFNFLPEWALSFYAAVRARDHATIYRELNDFVLPYTVLRNRRAGYAVSIVKAGMRAVGRPAGPVRTPLADLTEDEFAQLTQLIGGRREGHHHHHH,not soluble
10,MHPMNILLKLPLKIPLMIIEKAREILEKHPLCNHCLGRMFAKLGKGTNEERGKAIRLILSMELNREVKEPENCELCQGIFRRMNELLDLVRNAVEDYEFQTFQIGSRFPKDILEKEKKIWEEFGITTGEPINREFNRELGKLFAKVTGKIPNRERPDIVIIVEPFSSKVELQVNPIYVAGRYRKLVRGIPQTPAPGFEESIATIICRVFKKNFRGKCIFKGAGREDVDVRTLGRGRPFVVEIKKPRKRKVDLKLIEEEINSSGKVEVLELKFITPEESEKILTARHKKIYEALVYVKDGVSAEEVEKVVKSLKGSEIKQRTPRRVLNSRADIVRVRRVYNVSGEYIDEHHFKLKLVTDGGLYIKELISGDKGRTKPSVSEILGKEAWCEILDVLDVLDGDENVEGDSLEHHHHHH,not soluble
11,MRLEVLCEDRLGLTRELLDILASKSIDLRGIEIDISGIIYLNCPDIDFDTFSELMAEIRRIPGVKDVRKIQFMPMERHNTELLSLVDNLPDPVFAIDLKGAVDMANMSALSLLGLHKQEVIGTQIGALLPSVRFSRWSEGVNARTRENLVIDGLDYILELMPVYIRDEAQNSTLASTLMTIRTSQHGTQIE,not soluble
12,MRRRVGLGAIQQQKLAAEKYKDKGTDLQENQLEQMTKQMEVFRVKLEEFAMKHKEDIRKNSQFRKQFQEMCAAIGVDPLATGKGFWSVLGMGDFYYELGVQVVEVCLAANHKTGGLMELDDLRRRLIAARGQSSVHQEITKEDILMAAKKLSIFGNGFVVHKLGKGKYIVQSIPGELSMEETNILNAASNTEQGCVTQSQLIKDLGWTDYRAQQSLDKVLGEGLCWIDKQAGDEPAYWFPSLFPGRNAQTTAATAAAAAALEHHHHHH,not soluble
13,MGSDKIHHHHHHMTEQATTTDELAFTRPYGEQEKQILTAEAVEFLTELVTHFTPQRNKLLAARIQQQQDIDNGTLPDFISETASIRDADWKIRGIPADLEDRRVEITGPVERKMVINALNANVKVFMADFEDSLAPDWNKVIDGQINLRDAVNGTISYTNEAGKIYQLKPNPAVLICRVRGLHLPEKHVTWRGEAIPGSLFDFALYFFHNYQALLAKGSGPYFYLPKTQSWQEAAWWSEVFSYAEDRFNLPRGTIKATLLIETLPAVFQMDEILHALRDHIVGLNCGRWDYIFSYIKTLKNYPDRVLPDRQAVTMDKPFLNAYSRLLIKTCHKRGAFAMGGMAAFIPSKDEEHNNQVLNKVKADKSLEANNGHDGTWIAHPGLADTAMAVFNDILGSRKNQLEVMREQDAPITADQLLAPCDGERTEEGMRANIRVAVQYIEAWISGNGCVPIYGLMEDAATAEISRTSIWQWIHHQKTLSNGKPVTKALFRQMLGEEMKVIASELGEERFSQGRFDDAARLMEQITTSDELIDFLTLPGYRLLA,not soluble
14,MSEQVYSGVDQDEDGGLTPLGRIVIDAWVFGILPESEMCTGWSMSQMQNLYEEVYAAWGPYAHLPSRLPPELQQRHSFFYSQRITVAKNNGWDTDLSDES,not soluble
15,MGSDKIHHHHHHMDGEGMSVGHYENFPVGSLILPRRLRKPVHAVYAFARTADDMADEGSMPSEARLSGLEGLRRELDVLASGGRSAHPLIARLDAEAVVPFGLDLQPFYDLLSAFSQDVVKTRYAHFGDLTDYCRRSANPVGRIMLALYGKTDAVCVAQSDGICTALQLVNFWQDVAVDWQKGRVYIPQDDLLKFGVSEEQIAAGRADAAFQRLMAYECRRAFRMLKAGSPLARELKGRIGLELRMIVLGAQLILQKLDACRYDVFAQRPVLDKKDWLIMLKRALWK,not soluble
16,MLTQEHINIIKSTIPLLESAGPALTQHFYQRMFSHNPELKHIFNMTHQKTGRQSVALFEAIAAYAKHIDNLAALTSAVERIAHKHTSFNIQPEHYQIVGHHLLETLRELAPDAFTQPVEEAWTAAYFFLAQVFIDREGALYLERKQALGGWRDGRTFVVREKQVESAYVTSFVLVPADGGAVLDYQPGQYIGIEVTPEGSDYREIRQYSLSHASNGREYRISVKREGVGSDNPGLVSHYLHNNVKVGDSVKLYAPAGDFFYVERERPVVLISAGVGATPMQAILHTLAKQNKSGVTYLYACNSAKEHTFAQETAQLIAQQGWMQQVWYRDESADDVLQGEMQLAELILPIEDGDFYLCGPIGFMQYVVKQLLALGVDKARIHYEVFGPHAQLAA,not soluble
17,MAHHHHHHMNSGYPGPSGITVGSPGLPPGSLGSPFPEQMTSAHSSDGMQGSNASQVPLTIHADVDQHSKSHSPTLTSGVEVLFATHQPPVAGVNAPWDEDDDWSTPGAPAQHPASVGAPAKPPLPPGNNAPPPILIAEQMNPGSPAEPHPTPVAMSPPPSSDGFIASSSRAGSPNCPPTPLEKPSAANVAKVDALMKQIASRTAAMDAATKEKEMKIVTAAQEYLKALMAKRGEEVMNAKAIHKEEQQVGAEKINEHKKSGDVWSAVGLLVDLQKPNQYSRSTEQMRTVLSALNATPAKK,soluble

# From the DeepSol protein solubility set
